Measured values taken from patent US20260258139A1 (BRIGHAM AND WOMEN S HOSPITAL, published 2026).
Residue numbers refer to the chain shown, from its start.

T1: human KLRB1 expressed on CHO-hum-KLRB1 cells (human, UniProt Q12918 1-225)
T1 sequence: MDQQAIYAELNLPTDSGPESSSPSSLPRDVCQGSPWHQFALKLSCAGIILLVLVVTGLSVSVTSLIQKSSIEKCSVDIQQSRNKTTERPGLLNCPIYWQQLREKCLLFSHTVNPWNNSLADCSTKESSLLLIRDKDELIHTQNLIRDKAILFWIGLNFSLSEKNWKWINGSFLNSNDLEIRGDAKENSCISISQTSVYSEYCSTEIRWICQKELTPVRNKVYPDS

T2: human KLRB1 extracellular domain (ECD), amino acids 67-225 of human KLRB1 protein (human, UniProt Q12918 67-225)
T2 construct: Soluble analyte in SPR; also called KLRB1 ECD; CD161 ECD
T2 sequence: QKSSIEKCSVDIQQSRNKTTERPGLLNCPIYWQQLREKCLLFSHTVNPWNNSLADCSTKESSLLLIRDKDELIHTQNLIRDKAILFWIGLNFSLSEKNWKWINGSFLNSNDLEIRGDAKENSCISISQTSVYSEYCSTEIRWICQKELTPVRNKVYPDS

B1: 10A3D6hum2.2 (antibody, human IgG1, V domains shown)
VH: QVQLVQSGAEVKKPGASVKVSCKASGYSFTGYTMNWVRQAPGQNLEWIGLINPNTGGTYYNQKFKDRVTLTVDTSISTAYMELSRLRSDDTAVYYCARLGDNYRGYFDSWGQGTTVTVSS
VL: DIQLTQSPSFLSASVGDRVTITCKASQDVGTAVVWYQQKPGKAPKLLIDWASIRHTGVPSRFSGSGSGTEFTLTISSLQPEDFADYFCQQYSTYLYTFGGGTKLEIK
notes: tested as human IgG1-kappa produced in CHO cells
B2: 10A3D6hum1.2 (antibody, human IgG1, V domains shown)
VH: B1 VH with N44G, I48M, L70M, V72R
VL: B1 VL
notes: as for B1
B3: antibody 13.2 (antibody, human IgG1, kappa, V domains shown)
VH: B1 VH with S28T, N44G, I48M, N54S, L70M, V72R, S109Y
VL: EIVMTQSPATLSVSPGERATLSCRASQDVGTAVVWYQQKPGQAPRLLIDWASIRHTGIPARFSGSGSGTEFTLTISSLQSEDFAVYYCQQYSTYLYTFGGGTKVEIKR
notes: Human IgG1-kappa produced in CHO cells
B4: antibody 12.0 (antibody, human IgG1, kappa, V domains shown)
VH: B1 VH with S28T, N44G, I48M, N54S, L70M, V72R, S109Y
VL: DIQLTQSPSFLSASVGDRVTITCRASQDVGTAVVWYQQKPGKAPKLLIDWASIRHTGVPSRFSGSGSGTEFTLTISSLQPEDFATYYCQQYSTYLYTFGGGTKLEIKR
notes: as for B3
B5: antibody 13.4 (antibody, human IgG1, kappa, V domains shown)
VH: B1 VH with S28T, N44G, I48M, N54S, L70M, V72R, S109Y
VL: B3 VL with Y94W, L95P, Y96L
notes: as for B3
B6: antibody 11.57 (antibody, human IgG1, kappa, V domains shown)
VH: B1 VH with S28T, N44G, I48M, N54S, T55S, L70M, V72R, S109Y
VL: B4 VL with T31S, T56S
notes: as for B3
B7: antibody 12.2 (antibody, human IgG1, kappa, V domains shown)
VH: B1 VH with S28T, N44G, I48M, N54S, L70M, V72R, S109Y
VL: B4 VL with D28G, V29I, G30S, T31S, A32Y, V33L, V34A
notes: as for B3
B8: antibody 12.3 (antibody, human IgG1, kappa, V domains shown)
VH: B1 VH with S28T, N44G, I48M, N54S, L70M, V72R, S109Y
VL: B4 VL with D28G, V29I, G30S, T31S, A32Y, V33L, V34A, D49Y, Y91L, L95P
notes: as for B3
B9: antibody 13.6 (antibody, human IgG1, kappa, V domains shown)
VH: B1 VH with S28T, N44G, I48M, N54S, L70M, V72R, S109Y
VL: B3 VL with D28S, A32N, V33L, V34A, Y94W, L95P, Y96L
notes: as for B3
B10: antibody 12.1.3 (antibody, human IgG1, kappa, V domains shown)
VH: B1 VH with S28T, N44G, I48M, N54S, L70M, V72R, S109Y
VL: B4 VL with D28G, V29I, T31S
notes: as for B3
B11: antibody 13.5 (antibody, human IgG1, kappa, V domains shown)
VH: B1 VH with S28T, N44G, I48M, N54S, L70M, V72R, S109Y
VL: B3 VL with D28S, Y94W, L95P, Y96L
notes: as for B3
B12: antibody 11.45 (antibody, human IgG1, kappa, V domains shown)
VH: B1 VH with S28T, N44G, I48M, N54S, T55S, L70M, V72R, S109Y
VL: B4 VL with R24K
notes: as for B3
B13: antibody 11.29 (antibody, human IgG1, kappa, V domains shown)
VH: B1 VH with N44G, I48M, N54S, T55S, L70M, V72R
VL: B4 VL with R24K, T85D, Y87F
notes: as for B3
B14: antibody 11.27 (antibody, human IgG1, kappa, V domains shown)
VH: B1 VH with N44G, I48M, N54S, L70M, V72R
VL: B4 VL with R24K, T85D, Y87F
notes: as for B3
B15: 10A3D6hum8.2 (antibody, human IgG1, V domains shown)
VH: B1 VH with N54A, S109V
VL: B1 VL
notes: as for B1
B16: antibody 11.44.1 (antibody, human IgG1, kappa, V domains shown)
VH: B1 VH with N44G, I48M, N54S, T55S, L70M, V72R, S109V
VL: B4 VL with R24K
notes: as for B3
B17: antibody 11.12 (antibody, human IgG1, kappa, V domains shown)
VH: B1 VH with N44G, I48M, L70M, V72R, S109Y
VL: B4 VL with R24K, T85D, Y87F
notes: as for B3
B18: antibody 11.54 (antibody, human IgG1, kappa, V domains shown)
VH: B1 VH with N44G, I48M, N54S, T55S, L70M, V72R, S109Y
VL: B4 VL with R24K, T31S, T56S
notes: as for B3
B19: antibody 11.55 (antibody, human IgG1, kappa, V domains shown)
VH: B1 VH with N44G, I48M, N54S, T55S, L70M, V72R, S109Y
VL: B4 VL
notes: as for B3
B20: antibody 11.41.1 (antibody, human IgG1, kappa, V domains shown)
VH: B1 VH with N44G, I48M, N54S, L70M, V72R, S109V
VL: B4 VL with R24K
notes: as for B3

Target: T1, human KLRB1 expressed on CHO-hum-KLRB1 …
Test: cell-based or functional assay

| Span (fitted span of the ADCC dose-response curve, % target cell lysis of CHO-K1/human KLRB1 cells with PBMCs, E:T=25:1) | Binder |
| --- | --- |
| 74.2 % Target Cell Lysis (axis; the table prints no unit) | B1 |
| 75 % Target Cell Lysis (axis; the table prints no unit) | B2 |
| 77.8 % Target Cell Lysis (axis; the table prints no unit) | B3 |
| 80.8 % Target Cell Lysis (axis; the table prints no unit) | B4 |

Target: T1, human KLRB1 expressed on CHO-hum-KLRB1 …
Test: cell-based or functional assay
Remark: another data set of the same source

| EC50 for ADCC (target cell lysis, LDH release) | Binder |
| --- | --- |
| 0.0048 nM | B1 |
| 0.0058 nM | B2 |
| 0.0083 nM | B3 |
| 0.0054 nM | B4 |

Target: T2, human KLRB1 extracellular domain (ECD), …
Test: SPR (Biacore 8K), antibody fixed on chip, human KLRB1 ECD as analyte; second experiment
Experimental: (§1) Various humanized antibodies derived from humanized variants of antibody 10A3D6 with human IgG1-kappa were produced in CHO cells and then assayed for binding against human KLRB1 extracellular domain (ECD) via surface plasma resonance (SPR). Human KLRB1 extracellular domain was amino acids 67-225 from human KLRB1 protein (SEQ ID NO: 1). […] Antibody was fixed to the chip and analyte of human KLRB1 extracellular domain (ECD) was flowed over the surface at 30 ul/min, with contact time 120 seconds and dissociation time 360 seconds. The results are shown from two separate experiments in Tables 20 and 21.

| Kd | koff | kon | Binder |
| --- | --- | --- | --- |
| 14.6 nM | 0.00217 s⁻¹ | 149000 M⁻¹ s⁻¹ | B5 |
| 0.344 nM | 0.000107 s⁻¹ | 310000 M⁻¹ s⁻¹ | B2 |
| 2.52 nM | 0.000308 s⁻¹ | 122000 M⁻¹ s⁻¹ | B6 |
| 1.54 nM | 0.000236 s⁻¹ | 153000 M⁻¹ s⁻¹ | B7 |
| 68.8 nM | 0.00135 s⁻¹ | 19700 M⁻¹ s⁻¹ | B8 |
| 44.8 nM | 0.00269 s⁻¹ | 60000 M⁻¹ s⁻¹ | B9 |
| 0.444 nM | 0.000133 s⁻¹ | 300000 M⁻¹ s⁻¹ | B3 |
| 1.75 nM | 0.000248 s⁻¹ | 141000 M⁻¹ s⁻¹ | B10 |
| 20.3 nM | 0.00177 s⁻¹ | 87300 M⁻¹ s⁻¹ | B11 |
| 0.597 nM | 0.000145 s⁻¹ | 243000 M⁻¹ s⁻¹ | B4 |

Target: T2, human KLRB1 extracellular domain (ECD), …
Test: SPR (Biacore 8K), antibody fixed on chip, human KLRB1 ECD as analyte
Experimental: as §1

| Kd | koff | kon | Binder |
| --- | --- | --- | --- |
| 1.26 nM | 0.000227 s⁻¹ | 181000 M⁻¹ s⁻¹ | B12 |
| 0.263 nM | 8.18e-05 s⁻¹ | 311000 M⁻¹ s⁻¹ | B1 |
| 0.279 nM | 0.000135 s⁻¹ | 485000 M⁻¹ s⁻¹ | B2 |
| 0.743 nM | 0.000207 s⁻¹ | 278000 M⁻¹ s⁻¹ | B13 |
| 2.08 nM | 0.000308 s⁻¹ | 148000 M⁻¹ s⁻¹ | B6 |
| 0.314 nM | 0.000123 s⁻¹ | 391000 M⁻¹ s⁻¹ | B14 |
| 0.512 nM | 0.000171 s⁻¹ | 335000 M⁻¹ s⁻¹ | B15 |
| 1.09 nM | 0.000234 s⁻¹ | 215000 M⁻¹ s⁻¹ | B16 |
| 0.275 nM | 0.00012 s⁻¹ | 434000 M⁻¹ s⁻¹ | B17 |
| 2.24 nM | 0.000315 s⁻¹ | 141000 M⁻¹ s⁻¹ | B18 |
| 1.23 nM | 0.00022 s⁻¹ | 180000 M⁻¹ s⁻¹ | B19 |
| 0.414 nM | 0.000167 s⁻¹ | 403000 M⁻¹ s⁻¹ | B20 |
